Assay results taken from the nanobody polyreactivity screen of Harvey et al. (2022).

Experiment: yeast display, Sf9 membrane polyspecificity reagent, FACS + sequencing; frameworks hold sequencing errors
Summary of the method: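 Galactose-induced (36–48 hours) yeast carrying a synthetic nanobody display library were exposed to 10% biotinylated, detergent-solubilized Sf9 membrane reagent at 4 °C for 1 hour. FACS followed streptavidin microbead enrichment, using low and high (top ~1%) gates for expression (anti-HA) and reagent binding (streptavidin). Colony PCR, MiSeq 2 × 250 sequencing and CDR-length filtering followed. Labels for polyreactivity reflect the gate of origin.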

Row | Sequence | polyreactivity (PSR sort gate)
1 | QVQLVESGGGLVQAGGSLRLSCAASGRTFSYYAMGWYRQAPGKERELVAAISSGGSTYYADSVKGRFTISRDNAKNTVYLQMNRLKPEDTAVYYCAKEYKQALGHVSFDYWGQGTQVTVSS | low polyreactivity
2 | QVQLVESGGGLVQAGGSLRLSCAASGRTFSYYTMGRYRQAPGKERELVARISNRGTNTYYADSVKGRFTISRDHAKNSVNLQMNSLKTEDTAVFYCAKYYYTSIVGYDYWGQGTQVTVSS | low polyreactivity
3 | QVQLVESGGGLVQAGGSLRLSCAASGRTFSYYTMGWSRQAPGKERQLVARISNRGTNTYYADSVKGRFTISRDNAKNTVYLQMNSLIPEDTGVYYCAKYYYTSIVGYDSWGQGTQVTVSS | low polyreactivity
4 | QVQLVESGGGLVQAGGSLRLSCAASGRTFSYYTMGWYRQAPGKERDLVAGIRSAGSTYYADSVKGRFTISRDNAKNTVYLLMNSLKPEDTAVYYCAARPYGGGRRSIYYYWGQGTQVTVSS | high polyreactivity
5 | QVQLVESGGGLVQAGGSLRLSCAASGRTFTAYAMGWYRQAPGKERELVAAITTSGGTTYYADSVKGRFTISRDNAKNTVYLQMNSLKPEDTAVYYCAADVVVSWWLIYDYWGQGTQVTVSS | low polyreactivity
6 | QVQLVESGGGLVQAGGSLRLSCAASGRTFTAYAMGWYRQAPGKERELVAAITVSTSSTFYADSVKGRFTISRDNAKNTVYLQMNSLKPEDTAVYYCNKETLYPLDYWGEGTQVTVSS | low polyreactivity
7 | QVQLVESGGGLVQAGGSLRLSCAASGRTFTEYAMGWYRQAPGKERELVARISIGDSTYYADSVKGRFTISRDNAKNTVYLQMNSLKPEDTAVYYCNAEYSRSYRYDECYWGQGTQVTVSS | low polyreactivity
8 | QVQLVESGGGLVQAGGSLRLSCAASGRTFTEYAMGWYRQAPGKERELVARISIGDSTYYADSVKGRFTISRDNAKNTVYLQMNSLKPEDTAVYYCNAEYSRSYRYDEGYWGQGTQVTVSS | low polyreactivity
9 | QVQLVESGGGLVQAGGSLRLSCAASGRTFTFNAMGWYRQAPGKERELVAAITRSGGRTYYADSVKGRFTISRDNAKNTVYLQMNSLKPEDTAVYYCAAEWEYSWYDYDYWGQGTQVTVSS | high polyreactivity
10 | QVQLVESGGGLVQAGGSLRLSCAASGRTFTFNSMGGYRQAPGKERELFSRIDWRGITYADSVKGRFTISRDNAKYTVYLQMNSLKPEVTAVYYCSATFIQVVVNVQLYDYDYWGQGTQVTVSS | low polyreactivity
11 | QVQLVESGGGLVQAGGSLRLSCAASGRTFTFNTMGWYRQAPGKERELVAAITISDGRTYYADSVKGRFTISRDNAKNTVYLQMNSLKREVTAVYYCAAVQKYGYYWRHNDYWGQGTQVTVSS | low polyreactivity
12 | QVQLVESGGGLVQAGGSLRLSCAASGRTFTFYAMGWYRQAPGKERELVAAISTRGGRTYYADSVKGRFTISRDNAKNTVYFQMNSLKPDDTAVYYCASRARRRYYYWGQGTQVTVSS | high polyreactivity
13 | QVQLVESGGGLVQAGGSLRLSCAASGRTFTGNTMGWYRQAPGKERELVAAITKRGGSTYYADSVKGRFTISRDNAKNTVYLQMNSLKPEDTAVYYCAATSGVYRVGIIKYDYWGQGTQVTVSS | high polyreactivity
14 | QVQLVESGGGLVQAGGSLRLSCAASGRTFTGYAMGWDRQAPGKERELVAGISYRGGSTYYADSVKGRFTISRDNAKNTVYLQMNSLKQEVTAVYYCARDYSRHKGDYWGQGTQVTVSS | low polyreactivity
15 | QVQLVESGGGLVQAGGSLRLSCAASGRTFTGYAMGWYRQAPGKERELVAAISQGSGSTYYADSVKGRFTISRDNAKNTVYLQMNSLKPEDTAVYYCAAERAYYQTGHYYWGQGTQVTVSS | high polyreactivity
16 | QVQLVESGGGLVQAGGSLRLSCAASGRTFTGYAMGWYRQAPGKERELVASISGSGGRTNYADSVKGRFTISRDNAKNTVYLQMNSLKPEDTAVYYCAARYRTWFGYWGQGTQVTVSS | high polyreactivity
17 | QVQLVESGGGLVQAGGSLRLSCAASGRTFTHNVMGRYRQAPGKERELVAGISSTGGSTYYADSVKGRFTISRDNAKNTVYLQMNSLKPEDTAVYYCAVIGYHYSAISPPSQTRQGYDYWGQGTQVTVSS | low polyreactivity
18 | QVQLVESGGGLVQAGGSLRLSCAASGRTFTHNVMGWYRQAPGKERELVAGISSTGGSTYYADSVKGRFTISRDNAKNTVYLQMNSLKPEDTAVYYCAVIGYHYSAISPPSQTRQGYDYWGQGTQVTVSS | low polyreactivity
19 | QVQLVESGGGLVQAGGSLRLSCAASGRTFTHYAMGWYRQAPGKERELVAVITTGGSTYYADSVKGRFTISRDNAKNTVYLQMNSLKPEDTAVYYCAATALSGLGYWGQGTQVTVSS | low polyreactivity
20 | QVQLVESGGGLVQAGGSLRLSCAASGRTFTIYAMGSYRQAPGKERELVAAITRSGGGTYYADSVKGRFTISRDNAKNTVYFQMKSLKPEDTAVYYCARDKHWFYGVIGPEDYWGQGTQVTVSS | low polyreactivity
21 | QVQLVESGGGLVQAGGSLRLSCAASGRTFTIYAMGWYRQAPGKEREFVAGITTGGSSTYYADSVKGRFTISRDNAKNTVYLQMNILKPEDTAVYYCAAVSYAWYDYWGQGTHVTVSS | low polyreactivity
22 | QVQLVESGGGLVQAGGSLRLSCAASGRTFTKYAMGWYIQAPGKERELVASISTRGGSTYYADSVKGRFTISRDNAKNTVYLQMNSLKPEDTAVYYCNKGFRHRAPSSTPYDYWGQGTQVTVSS | high polyreactivity

Row | Sequence | polyreactivity (PSR sort gate)
23 | QVQLVESGGGLVQAGGSLRLSCAASGRTFTKYAMGWYRQAPGKERELVATIRGRGGSTYYADSVKGRFTISRDNAKYTVYLQMNSLKPEDTAVYYCAADYWFSSRKYDYWGQGTQVTVSS | high polyreactivity
24 | QVQLVESGGGLVQAGGSLRLSCAASGRTFTLNAMGWYRQAPGKERELVAAISGDTGSTYYADSVKGRFTISRDNAKNTVFLQMNSLKPEDTAVYYCATRHAGTWYYWFERYYWGQGTQVTVSS | high polyreactivity
25 | QVQLVESGGGLVQAGGSLRLSCAASGRTFTPNAMGWYRQAPGKERELVAAITSTGGRTYYADSVKGRFTISRDNAKNTVYLQMNSLKPEDTAVYYCAVSYRYLRKYGYWGQGTQVTVSS | high polyreactivity
26 | QVQLVESGGGLVQAGGSLRLSCAASGRTFTPNAMGWYRQAPGKERELVASIRRGTSTYYADSVKGRFTISRDNAKNTVYLQMNSLKPEDTAVYYCAARPFVPRVGTYSYYWGQGTQVTVSS | high polyreactivity
27 | QVQLVESGGGLVQAGGSLRLSCAASGRTFTPYDMGWYRPAPGKERELVAAITWRGGSTYYADSVKGRFTISRDNAKNTVYLQMNSLKPEDTAVYYCAKDRWTYAFRVGYGYWGQGTQVTVSS | high polyreactivity
28 | QVQLVESGGGLVQAGGSLRLSCAASGRTFTRNAMGWYRQAPGKERELVAAITGRGGSTYYADSVKGRFTISRDNAKNTVYLQMNSLKPEDTAVYYCARFYRYSRDYWGQGTQVTVSS | high polyreactivity
29 | QVQLVESGGGLVQAGGSLRLSCAASGRTFTRNAMGWYRQAPGKERELVAAITRGASTYYADSVKGRFTISRDNAKNTVYLQMNSLKPEDTAVYYCAVSQYRGIYRKYDYWGQGTQVTVSS | high polyreactivity
30 | QVQLVESGGGLVQAGGSLRLSCAASGRTFTRYAMGWYRQAPGKERELVAAISRGGGGTYYADSVKGRFTISRDNAKNTVYLQMNSLKPEDTAVYYCAADGDRSAQRYTGYYYWGQGTQVTVSS | high polyreactivity
31 | QVQLVESGGGLVQAGGSLRLSCAASGRTFTRYAMGWYRQAPGKERELVAAISRRGGRTFYADSVKGRFTISRDNAKNTVYLQMNSLKPEDTAVYYCAADYKSSPPLPEYDYWGQGTQVTVSS | high polyreactivity
32 | QVQLVESGGGLVQAGGSLRLSCAASGRTFTRYAMGWYRQAPGKERELVAAISYIGGRTNYADSVKGRFTISRDNAKNTVYLQMNSLKPEDTAVYYCAASRPWVYYDGLDYWGQGTQVTVSS | high polyreactivity
33 | QVQLVESGGGLVQAGGSLRLSCAASGRTFTRYAMGWYRQAPGKERELVAAITSDGTTYYADSVKGRFTISRDNAKNTVYLQMNSLKPEDTAVYYCNAQYKFPDLGGYDYWGQGTQVTVSS | high polyreactivity
34 | QVQLVESGGGLVQAGGSLRLSCAASGRTFTRYAMGWYRQAPGKERELVAAITSSGRTYYADSVKGRFTISRDNAKNTVYLQMNSLKPEDTAVYYCAARGVYVKYYYWGQGTQVTVSS | high polyreactivity
35 | QVQLVESGGGLVQAGGSLRLSCAASGRTFTRYAMGWYRQAPGKERELVATITRGGSTNYADSVKGRFTISRDNAKNTVYLQMNSLKPEDTAVYYCAAGYFIRTRSRYRYDYWGQGTQVTVSS | high polyreactivity
36 | QVQLVESGGGLVQAGGSLRLSCAASGRTFTRYAMGWYRQAPGKERELVATITRGGSTNYADSVKGRFTISRDNSKNTVYLQMNSLKPEDTAVYYCAAGYFIRTRSRYRYDYWGQGTQVTVSS | high polyreactivity
37 | QVQLVESGGGLVQAGGSLRLSCAASGRTFTSNAMGWYRQAPGKERELVAAISNRGTRTYYADSVKGRFTISRDNAKNTVYLQMNSLKPEDTAVYYCAARVSTVFKRYYYWGQGTQVTVSS | high polyreactivity
38 | QVQLVESGGGLVQAGGSLRLSCAASGRTFTSNAMGWYRQAPGKERELVAAITRGGSTYYADSVKGRFTISRDNAKITVYLQMNSLKPEDTAVYYCAAAYGGRLRYTAGYYWGQGTQVTVSS | high polyreactivity
39 | QVQLVESGGGLVQAGGSLRLSCAASGRTFTSYAMGWYRQEHGKERELVAGISSGGSTNYADSVKGRFTLSRDNAKNTVYLQMNSLKPEDTAVYYWAAGFSPGSYDAPTLAFEYWGQGTQVTVSS | low polyreactivity
40 | QVQLVESGGGLVQAGGSLRLSCAASGRTFTTNAMGWYRQAPGKERELVAAITIGDDTYYADSVKGRFTISRDNAKNTVYLQMNSLKPEDTEVYYCSADYKRVPFVTQYVSKDGYWGHGTQVTVSS | low polyreactivity
41 | QVQLVESGGGLVQAGGSLRLSCAASGRTFTTYAMGWYRQAPGKERELVAAISGSGGSTYYADSVKGRFTISRDNAKNTVYLQMNSLKPEDTAVYYCATAYYYHGGYYYPYDDDWGQGTQVTVSS | low polyreactivity
42 | QVQLVESGGGLVQAGGSLRLSCAASGRTFTVYAMGWYRQAPGKERELVAAISSGGITYYADSVKGRFTISRDNAKNTVYLQMNSLKPEDTAVYYCNTKSGKARYVFGYWGQGTQVTVSS | low polyreactivity
43 | QVQLVESGGGLVQAGGSLRLSCAASGRTFVANTMGWYRQAPGKEREFVAGISRRGGSTYYADSVKGRYTISRDNAKNTVYLQMNSLKPEDPAVYYCAVGTWARYRGLEYDYWGQGTQVTVSS | high polyreactivity
